Reference: IntAct's records for PubMed 23022437

B1: Sodium channel protein type 7 subunit alpha (Mus musculus), B1AYL1 (parent)
chain: MLTSPEPKGLVPFTTESLELIENHIAKKCNEDPEEEEGLKPSRNLEAGKRLPIPYGTLPRGTVSEPLEDVDPYYYVKRNTFMVLNRSRVIFRFNAVSIFCTLSPLNSLRRAAIKALVHPLFRLLILISVLTDSILMCMSNLPEWILAIENTLLGIYAFEILVKVIARGIWAGSFSFLGDLWNWLDFSVTLFELITRFSPLSSFLMLKTIRTFRILKIIPLNHGLQSIVMTLAQCLKKLFGAIALALFFLAVFSLLGMGLFMGNLKHKCLRWPEENENETLHNRTGSLNYSPERINFYYMEGAKYALLCGNRTDAGQCPEGYVCVKEGTNPDNGFTSFDNFGWSLLAMFRLMTQDYPELLYHQILYASGKVYMIFFVMISFWFAFYLTSLFLGILTMTYEKEKQRACEESGGLDPKCQQTVKELDEENDAAEMETTQIEMKKRSPTSINTTLDILEDTTLGHREEPETSRKKCPICWHKFIKTCFIWKCSPCWVKLNEFADRVITHPLADLFLVICIVLNICFLALEHFPMSEELRSLLHVGNLVFIGIYTIEMILKIIAMHPYGYFQISWNIFDSILVVLELTEILLADVEGLAVLITVPLIFIKLGKYGPPFKSLMRILGSSLMALKDLVLLLCIFVYFSAVFGMKLFGRSYKDCVCHIKEDCQPQRWHMSDFLHAYMTVFRILCGEWIETLWECMEVAGQAWCIPFYMMVILIGNLLILYLFVTLVSSFSYYDATSEVNKEAKNLQLAMARIKSGINSMLLKLMCTERSVPTEATDQICDPSVKENISGHTLSELSNTQTFLRYKDQSSSTEKTPVTESESQSLIASPSASETVPIASGESDIENLDNKETRSKSGNGGSKEKMKQSSSSECSTVDIAISEEEEMVYEHEKSKLHKNGYERKSSTGQISRESRNGKIWKNIRKTCCKIVENSWFECFIGLVTLLCTGTLALEDIYIDQRKTTKILLEYADMIFAYIFILEMLLKWVAYGFKAFFSNNWYKLDFMVVIVFCLSLIGKTREDLNPLTSIKFLRALRVLSQFERMKVVLRALIKTTLPTVSVFLVCLMIWLLFSVIGVQLFAGKFYECIDPTKGERFPVFEVMNKSQCEKLLFNESMPWENAKLNFDNVGNGFLSLLQVATFNGWISIMNSAIDSVGVNMQPSFEYNLYMYSYFIIFVIFGLFLPLCMLIGVIIRNFNKQKIKQGGSNIFITVKQKKQYRALKKLLYADVQKPTPRPRNKFQGFLFDLVTHRVFNVIIILLICFQATTIMIQKDEQSPQMETAIFWMNSIFVMLFTLECILKLTAFRCHYFTSAWNVHDFMVVIFSITGLLLPLTIGQYFVPPSLVQLILLSRVIHILRPGKGPKVFHDLMLPLILALPALLNISLLIFLVMFIYAIFGMYNFAYVKKEAGINDVSNFETFGSSMLCLFQVTTFSGWDGMLDAIFNSQWSDCDPDKINPGTQVKGDCGSPSVGISYFVSYILISWLIIVNMYIVLIMEFLSIPSQKKSRTLSEDDFRRFFRVWNRFDPDRTQYIDSSKLSDFAAALDPPLFMAKPNKGQLVAMDLPMAAGDRIHCLDILLAFTKRVMGKDERVEKILSEIESGFMLANPFKITYEPITTTLKRKQEAVSATIIQRAYKSYRLRQNDKNVSDTPAIDDRRDDLTSKGAHSGKIEEKASIQTQI

Variants of: B1
Details: with dlg1_mouse Dlg1, Q811D0
dlg1_mouse Dlg1, Q811D0, sequence (Q811D0 whole entry): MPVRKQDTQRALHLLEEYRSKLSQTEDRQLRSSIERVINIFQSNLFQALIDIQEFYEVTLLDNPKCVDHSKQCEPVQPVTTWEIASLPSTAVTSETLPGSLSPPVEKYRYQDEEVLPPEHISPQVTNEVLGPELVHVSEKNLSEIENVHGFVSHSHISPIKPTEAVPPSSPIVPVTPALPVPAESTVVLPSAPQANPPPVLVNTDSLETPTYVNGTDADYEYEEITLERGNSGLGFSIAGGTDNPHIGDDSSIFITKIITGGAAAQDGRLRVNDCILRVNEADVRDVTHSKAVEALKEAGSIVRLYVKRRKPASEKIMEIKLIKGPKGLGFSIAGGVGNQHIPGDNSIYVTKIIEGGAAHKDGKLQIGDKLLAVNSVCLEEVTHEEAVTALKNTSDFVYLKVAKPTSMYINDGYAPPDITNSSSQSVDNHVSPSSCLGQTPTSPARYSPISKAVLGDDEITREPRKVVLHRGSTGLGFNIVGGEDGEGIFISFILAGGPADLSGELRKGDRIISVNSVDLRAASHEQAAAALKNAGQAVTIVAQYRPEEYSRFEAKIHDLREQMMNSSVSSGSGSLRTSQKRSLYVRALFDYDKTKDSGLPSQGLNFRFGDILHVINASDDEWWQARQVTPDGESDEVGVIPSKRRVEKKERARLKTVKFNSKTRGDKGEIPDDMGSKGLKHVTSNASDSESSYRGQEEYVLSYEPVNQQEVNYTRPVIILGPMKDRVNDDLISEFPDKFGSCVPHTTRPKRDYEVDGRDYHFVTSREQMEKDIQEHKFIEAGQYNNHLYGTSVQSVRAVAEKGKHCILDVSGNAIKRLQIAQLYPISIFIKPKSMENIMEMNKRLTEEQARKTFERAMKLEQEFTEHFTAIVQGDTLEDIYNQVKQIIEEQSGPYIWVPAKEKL

| effect of a mutation on the interaction | Variant |
| --- | --- |
| disrupting interaction | T1679A |

Variants of: B1
Details: with dlg1_rat Dlg1, Q62696
dlg1_rat Dlg1, Q62696, sequence (Q62696 whole entry): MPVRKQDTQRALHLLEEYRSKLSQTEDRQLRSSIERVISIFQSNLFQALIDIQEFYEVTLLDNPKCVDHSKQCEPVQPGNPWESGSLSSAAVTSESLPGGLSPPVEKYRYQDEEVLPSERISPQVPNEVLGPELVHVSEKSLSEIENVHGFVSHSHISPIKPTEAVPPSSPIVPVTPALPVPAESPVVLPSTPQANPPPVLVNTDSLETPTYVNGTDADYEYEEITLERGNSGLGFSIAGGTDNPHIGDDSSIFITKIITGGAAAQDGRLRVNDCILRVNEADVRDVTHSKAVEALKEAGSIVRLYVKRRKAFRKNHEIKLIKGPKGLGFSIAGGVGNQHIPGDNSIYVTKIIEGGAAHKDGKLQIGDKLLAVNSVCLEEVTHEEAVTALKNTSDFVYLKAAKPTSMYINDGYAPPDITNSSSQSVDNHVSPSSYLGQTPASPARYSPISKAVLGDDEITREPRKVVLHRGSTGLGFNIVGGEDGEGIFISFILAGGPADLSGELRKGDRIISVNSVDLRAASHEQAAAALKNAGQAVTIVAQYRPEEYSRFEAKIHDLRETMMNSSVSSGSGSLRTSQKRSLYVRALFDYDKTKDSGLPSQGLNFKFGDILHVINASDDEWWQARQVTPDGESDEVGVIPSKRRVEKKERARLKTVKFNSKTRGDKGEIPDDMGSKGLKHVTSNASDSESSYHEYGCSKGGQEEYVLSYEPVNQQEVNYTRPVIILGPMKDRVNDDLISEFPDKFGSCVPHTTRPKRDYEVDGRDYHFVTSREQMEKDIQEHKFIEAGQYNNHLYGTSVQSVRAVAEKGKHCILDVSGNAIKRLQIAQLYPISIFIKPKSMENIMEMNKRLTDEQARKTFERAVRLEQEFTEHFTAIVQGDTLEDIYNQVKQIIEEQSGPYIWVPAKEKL

| effect of a mutation on the interaction | Variant |
| --- | --- |
| disrupting interaction | T1679A |
